Results on two molecules are retold here after patent publication US20190256586A1 (Johns Hopkins, published 2019).

The target of the assay is T1, recombinant PSSP17 (117 amino acid fragment of P. falciparum PSSP17 with a HIS tag, expressed in E. coli) (Plasmodium falciparum).
T1 construct: Antigen used to raise 10E2B7 and 27C9B5; spiked into naive human saliva in the lateral flow assays; also called recombinant PfPSSP17; recombinant subunit PSSP17; not shown: HIS tag from the expression vector
T1 chain: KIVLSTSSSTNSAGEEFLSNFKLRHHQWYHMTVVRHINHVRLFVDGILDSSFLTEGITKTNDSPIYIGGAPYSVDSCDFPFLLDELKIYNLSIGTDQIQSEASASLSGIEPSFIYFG
The assay is described as follows: sandwich lateral flow immunoassay (gRAD strip, streptavidin test line); lower limit of detection of recombinant PSSP17 printed as 1-5 ng/mL.

B1: anti-PSSP17 mAb 10E2.B7 IgG (antibody, V domains shown)
VH: EVQLVESGGDLVKPGGSLKLSCAASGFTFSSYGMSWVRQTPDKRLEWVATISSGGSYIYYPDSMKGRFTMSRDNAKNTLYLQMSSLKSEDTAMYYCAREERDWLAYWGQGTLVTVSA
VL: DVVMTQSPLSLPVSLGDQASISCRSSQSLIHNNGDIYVHWYLQKPGQSPKLLIYKVSNRFSGVPDRFSGSGSGTDFTFKISRVEAEDLGVYFCSQSSHVPPTFGGGTKLEIK
notes: Used biotinylated (20:1 biotin:antibody) as the capture antibody of the SMAART-PSSP17 lateral flow assay; also called biotinylated anti-PSSP17 10E2.B7; Bio-Ab
Consider B1, for which the binding result is “binds”.

B2: anti-PF3D7_1218800 mAb 27C9.B5 IgG (antibody, V domains shown)
VH: QVQVRQSGAEVVRPGTSVRVSCKTSGYAFTDYLIEWVKQRPGQGLEWIGVINPVRGTTNYSEKFKGKATLTADKSSGTAYMQFYSLTSDDSAVYFCARSRGSDGFPYWGQGTLVTVSA
VL: DVLMTQTPLSLPVSLGDQASISCRSSQSIVHSNGYTYLEWYLQKPGQSPKLLIYKLSNRFSGVPDRFSGSGSGTDFTLKISRVEAEDLGVYYCFQGSHIPYTFGGGTKLEIK
notes: Used covalently coupled to Europium(III)-chelate carboxylate polystyrene microparticles as the detection antibody of the SMAART-PSSP17 lateral flow assay; also called EuChelate nanoparticle-conjugated anti-PSSP17 27C9.B5 mAb; MP-27C9.B5 conjugate
B2: the binding result is listed as “binds”.
